Test results taken from patent publication US20230159589A1 (published 2023).
Square brackets hold non-standard residues; d marks the D form. Ends that are not written are not given here. F2Pmp = N[C@@H](Cc1ccc(C(F)(F)P(=O)(O)O)cc1)C(=O)O

T1: STEP32 WT (catalytic domain of protein tyrosine phosphatase STEP/PTPN5, aa 282-563, N-terminal 6xHis tag) (UniProt P54829 282-563)
T1 construct: Expressed from pLIC-SGC1-PTPN5 WT (Addgene 39166); also called catalytic active STEP32
T1 sequence: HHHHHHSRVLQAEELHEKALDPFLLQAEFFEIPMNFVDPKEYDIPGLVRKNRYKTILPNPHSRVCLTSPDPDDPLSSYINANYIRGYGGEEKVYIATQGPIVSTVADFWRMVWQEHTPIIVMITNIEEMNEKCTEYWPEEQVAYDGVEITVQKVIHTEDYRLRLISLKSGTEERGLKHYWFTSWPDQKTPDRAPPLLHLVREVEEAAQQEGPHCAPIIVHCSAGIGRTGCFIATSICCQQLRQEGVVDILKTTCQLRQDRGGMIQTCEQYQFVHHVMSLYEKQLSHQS


Tests used:
[1] = target: STEP32 C/S (catalytically inactive substrate-trapping mutant of the catalytic domain of protein tyrosine phosphatase STEP/PTPN5, aa 282-563, C496S, N-terminal 6xHis tag) (Homo sapiens (Human)) (UniProt P54829); assay: SPR (value taken from Table S3)
[2] = target: STEP32 C/S (catalytically inactive substrate-trapping mutant of the catalytic domain of protein tyrosine phosphatase STEP/PTPN5, aa 282-563, C496S, N-terminal 6xHis tag) (Homo sapiens (Human)) (UniProt P54829); assay: SPR (Biacore 3000), peptide immobilized, STEP32 C/S analyte, 1:1 Langmuir fit
[3] = target: STEP32 C/S (catalytically inactive substrate-trapping mutant of the catalytic domain of protein tyrosine phosphatase STEP/PTPN5, aa 282-563, C496S, N-terminal 6xHis tag) (Homo sapiens (Human)) (UniProt P54829); assay: fluorescence polarization competition; displaces TAMRA-3Y-F2Pmp from STEP32 C/S
[4] = target: STEP32 C/S (catalytically inactive substrate-trapping mutant of the catalytic domain of protein tyrosine phosphatase STEP/PTPN5, aa 282-563, C496S, N-terminal 6xHis tag) (Homo sapiens (Human)) (UniProt P54829); assay: SPR; reference p3Y
[5] = target: STEP32 C/S (catalytically inactive substrate-trapping mutant of the catalytic domain of protein tyrosine phosphatase STEP/PTPN5, aa 282-563, C496S, N-terminal 6xHis tag) (Homo sapiens (Human)) (UniProt P54829); assay: ligand efficiency derived from the binding data
[6] = target: STEP32 C/S (catalytically inactive substrate-trapping mutant of the catalytic domain of protein tyrosine phosphatase STEP/PTPN5, aa 282-563, C496S, N-terminal 6xHis tag) (Homo sapiens (Human)) (UniProt P54829); assay: fluorescence polarization competition; displaces TAM-3Y-F2Pmp from STEP32 C/S
[7] = target: STEP32 C/S (catalytically inactive substrate-trapping mutant of the catalytic domain of protein tyrosine phosphatase STEP/PTPN5, aa 282-563, C496S, N-terminal 6xHis tag) (Homo sapiens (Human)) (UniProt P54829); assay: fluorescence polarization competition; column headed Kd, the text speaks of IC50 values in Table 3
[8] = target: STEP32 C/S (catalytically inactive substrate-trapping mutant of the catalytic domain of protein tyrosine phosphatase STEP/PTPN5, aa 282-563, C496S, N-terminal 6xHis tag) (Homo sapiens (Human)) (UniProt P54829); assay: SPR, peptide immobilized, STEP32 C/S analyte
[9] = target: STEP32 C/S (catalytically inactive substrate-trapping mutant of the catalytic domain of protein tyrosine phosphatase STEP/PTPN5, aa 282-563, C496S, N-terminal 6xHis tag) (Homo sapiens (Human)) (UniProt P54829); assay: fluorescence polarization competition; reference EGYNVpY hexapeptide
[10] = target: T1, STEP32 WT (catalytic domain of protein …); assay: SPR, peptide immobilized, STEP32 WT analyte (per FIG. 7 legend)
Protocol: (§1) For each kinetic experiment, at least five different protein concentrations ranging between 100 nM and 500 μM were used. […] The association and dissociation time was set to 5 min. After each interaction test, 2-4 cycles of regeneration were performed by injecting 1M NaCl in HBS-EP buffer (0.01 M HEPES pH 7.4, 0.15 M NaCl, 3 mM EDTA, 0.005% v/v Surfactant P20) for 2 min at a flow rate of 20 μl/min. HBS-EP buffer was used as a running buffer. All measurements were carried out at 25° C. The data obtained was processed with BIAevaluation 3.1 software using 1:1 Langmuir fitting model with drifting baseline (using “Kinetics Simultaneous Kd/Ka” module). Nonspecific signals were removed by subtraction of signals from the reference area.

[11] = target: T1, STEP32 WT (catalytic domain of protein …); assay: SPR (Biacore 3000), peptide immobilized, STEP32 WT analyte (per FIG. 7 legend), 1:1 Langmuir fit
Protocol: For kinetic interaction studies by SPR, each of the short phosphopeptides was covalently immobilized on a flow cell of a carboxymethylated dextran chip. […] The amino group of the spacer was used to perform the covalent binding of the ligands to the sensor.
as §1

| Molecule | Ka [2] | Kd [2] | koff [2] | Ki [3] | Ki [6] | IC50 [7] | also measured |
| --- | --- | --- | --- | --- | --- | --- | --- |
| p3Ysh-1 (PEG2-NVpYG) (peptide) | 38400 M⁻¹ | 26000 nM | 0.00252 s⁻¹ | 4990 nM | – | – | Kd [1]: 26000 nM |
| p3Ysh-3 (PEG2-EGYNVpY) (peptide) | 1.88e+07 M⁻¹ | 53.1 nM | 0.00176 s⁻¹ | 1640 nM | 690 nM | 2600 nM | fold lower Kd than p3Y [4]: 4 fold; fold smaller Kd than p3Y [4]: > 2 fold; Kd [1]: 60 nM; LE (ligand efficiency) [5]: 0.64; kon [2]: 33100 M⁻¹ s⁻¹ |
| p3Ysh-5 (PEG2-YVpYG) (peptide) | – | – | – | 5340 nM | – | – | – |
| p3Ysh-6 (PEG2-FGYNVpYG) (peptide) | 163000 M⁻¹ | 6130 nM | 0.11 s⁻¹ | 6960 nM | – | – | fold higher Kd than p3Y [4]: 6.4 fold; Kd [1]: 6130 nM; kon [2]: 17900 M⁻¹ s⁻¹ |
| p3Ysh-7 (PEG2-FSpYG) (peptide) | – | – | – | 4570 nM | – | – | – |
| p-fin1 (GYNVpY) (peptide) | – | – | – | – | 1900 nM | 8010 nM | – |
| p-fin3 (NGYNVpY) (peptide) | – | – | – | – | 2160 nM | 8840 nM | – |
| EGYNV[F2Pmp] (also called 3Ysh-F2Pmp) [3Ysh-3-F2Pmp (EGYNV{F2Pmp})] | – | – | – | – | – | – | Kd [10]: 240 nM; Ka [11]: 4.12e+06 M⁻¹; Kd [11]: 242 nM; koff [11]: 0.00483 s⁻¹; kon [11]: 19900 M⁻¹ s⁻¹ |
| ATYKEGYNV[F2Pmp]G (also called p3Y-F2Pmp) [3Y-F2Pmp (ATYKEGYNV{F2Pmp}G)] | – | – | – | – | – | – | Kd [10]: 270 nM; Ka [11]: 3.74e+06 M⁻¹; Kd [11]: 268 nM; koff [11]: 0.00656 s⁻¹; kon [11]: 24500 M⁻¹ s⁻¹ |

Further lines, with some results ahead:

| Ka [2] | Kd [2] | koff [2] | Ki [3] | Ki [6] | IC50 [7] | Molecule | also measured |
| --- | --- | --- | --- | --- | --- | --- | --- |
| 253000 M⁻¹ | 3960 nM | 0.179 s⁻¹ | 13100 nM | – | – | p3Ysh-2 (PEG2-YNVpYG) (peptide) | fold higher Kd than p3Y [4]: 17 fold; Kd [1]: 3960 nM; kon [2]: 45200 M⁻¹ s⁻¹ |
| – | – | – | 13700 nM | – | – | p3Ysh-4 (PEG2-NSpYG) (peptide) | – |
| – | – | – | – | 1850 nM | 7150 nM | p-fin2 (DGYNVpY) (peptide) | – |
| 1.13e+07 M⁻¹ | 88.4 nM | 0.00692 s⁻¹ | – | 360 nM | 1860 nM | p-fin4 (EGYNVpYE) (peptide) | Kd [8]: 90 nM; fold improvement of the inhibition constant over the original hexapeptide [9]: 2 fold; kon [2]: 78200 M⁻¹ s⁻¹ |
| – | – | – | – | 760 nM | 3360 nM | p-fin5 (EGYNVpYGD) (peptide) | – |
